Publication PMC9981700 (2023)

Molecular target: T1, Notch2 (Leu26–Gln530), recombinant protein (UniProt Q04721 26-530)
T1 chain: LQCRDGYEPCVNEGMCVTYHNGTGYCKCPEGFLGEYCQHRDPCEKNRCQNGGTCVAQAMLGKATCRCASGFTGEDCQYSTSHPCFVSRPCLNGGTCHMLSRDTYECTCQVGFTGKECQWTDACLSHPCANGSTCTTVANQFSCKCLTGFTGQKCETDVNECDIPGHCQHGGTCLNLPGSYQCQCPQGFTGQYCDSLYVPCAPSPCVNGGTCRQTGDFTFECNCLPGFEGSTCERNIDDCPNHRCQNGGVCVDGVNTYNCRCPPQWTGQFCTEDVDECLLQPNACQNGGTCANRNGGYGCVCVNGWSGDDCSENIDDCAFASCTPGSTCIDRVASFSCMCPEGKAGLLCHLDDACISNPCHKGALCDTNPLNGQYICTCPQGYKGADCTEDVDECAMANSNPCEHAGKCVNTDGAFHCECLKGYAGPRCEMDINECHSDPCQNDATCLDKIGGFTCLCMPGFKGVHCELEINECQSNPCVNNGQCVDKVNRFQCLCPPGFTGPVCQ
Experiment: BLI

Kd: 1.22 nM
B1: Fibulin2 (Ala28–Leu1184), recombinant protein (natural protein)
chain: APRQDCTGVECPPLENCIEEALEPGACCATCVQQGCACEGYQYYDCLQGGFVRGRVPAGQSYFVDFGSTECSCPPGGGKISCQFMLCPELPPNCIEAVVVADSCPQCGQVGCVHAGHKYAAGHTVHLPPCRACHCPDAGGELICYQLPGCHGNFSDAEEGDPERHYEDPYSYDQEVAEVEAATALGGEVQAGAVQAGAGGPPAALGGGSQPLSTIQAPPWPAVLPRPTAAAALGPPAPVQAKARRVTEDSEEEEEEEEEREEMAVTEQLAAGGHRGLDGLPTTAPAGPSLPIQEERAEAGARAEAGARPEENLILDAQATSRSTGPEGVTHAPSLGKAALVPTQAVPGSPRDPVKPSPHNILSTSLPDAAWIPPTREVPRKPQVLPHSHVEEDTDPNSVHSIPRSSPEGSTKDLIETCCAAGQQWAIDNDECLEIPESGTEDNVCRTAQRHCCVSYLQEKSCMAGVLGAKEGETCGAEDNDSCGISLYKQCCDCCGLGLRVRAEGQSCESNPNLGYPCNHVMLSCCEGEEPLIVPEVRRPPEPAAAPRRVSEAEMAGREALSLGTEAELPNSLPGDDQDECLLLPGELCQHLCINTVGSYHCACFPGFSLQDDGRTCRPEGHPPQPEAPQEPALKSEFSQVASNTIPLPLPQPNTCKDNGPCKQVCSTVGGSAICSCFPGYAIMADGVSCEDINECVTDLHTCSRGEHCVNTLGSFHCYKALTCEPGYALKDGECEDVDECAMGTHTCQPGFLCQNTKGSFYCQARQRCMDGFLQDPEGNCVDINECTSLSEPCRPGFSCINTVGSYTCQRNPLICARGYHASDDGTKCVDVNECETGVHRCGEGQVCHNLPGSYRCDCKAGFQRDAFGRGCIDVNECWASPGRLCQHTCENTLGSYRCSCASGFLLAADGKRCEDVNECEAQRCSQECANIYGSYQCYCRQGYQLAEDGHTCTDIDECAQGAGILCTFRCLNVPGSYQCACPEQGYTMTANGRSCKDVDECALGTHNCSEAETCHNIQGSFRCLRFECPPNYVQVSKTKCERTTCHDFLECQNSPARITHYQLNFQTGLLVPAHIFRIGPAPAFTGDTIALNIIKGNEEGYFGTRRLNAYTGVVYLQRAVLEPRDFALDVEMKLWRQGSVTTFLAKMHIFFTTFAL
